From the domain aggregation screens of Martell et al. (2025)

Test: soluble fraction after stress (log2 fold change); higher = more stays soluble; pooled small domains, quantitative proteomics
Details: stress: 75 degC
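Note: 20 min heating vs room temperature control held 20 min.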

| Sequence | soluble fraction (log2) |
| --- | --- |
| HMWSAREQVVNSLREAILTSELKAGERLVLSDLSARLGVSVTPIREALQSLEREGLVQLMPHQEAVVV | 0.18 |
| HMWVETITTKAGITKYKFQERYTDTYSGKTKRVSVTYTSNSRQAYKLAQAELQKKIDLATNTD | -0.638 |
| HMYAHLGKNLEVVINKALAQEDPEKKAGFAHHIAYYMKLAYSNWHKELVHDDAIRSELDTITGGELEFSN | 0.609 |
| HMYAHTPEMEAMNELGLEPPVTLDEIKKTYKTLVKKYHPDHNKEDPEAEEKLKKVNMAYTILKVAYTEFEK | -0.246 |
| HMYALGIPVSQYRRTTQVLGHESSYPIAYEDEKQDDDFYLFKFPNIDEYDFKKIVILLKQNGITT | -2.11 |
| HMYDNTVTKYVNSLSVYVRKGPSTSDEIVTSLIKDTDVTVVGENGEWYKIKYKEFEGYIYKNLLSDNKT | -1.91 |
| HMYDRIKLLKLREKRGLTQYELAEKAGISVVTLNKIETSDMAKPFASTLKKIALALGVGIEELS | -2.2 |
| HMYEDGGAFLKAEREKYGLTLTDIYEHTHIPVRKLKAYEMHEEEMPDRTRALLELYFDQVAYEYES | -0.734 |
| HMYEDIDSAYRILEINSTVSNQEIKNAYRRMAKKYHPDKVAHLGVEHQKGAEEKFKKVQEAYILIKKRRG | -0.918 |
| HMYEENFSKIKNDISTIFKRHKISFTNNFISHLSSVFNTDSLTNKMELEKLDSFLINNKKVTENELLKFII | -0.0789 |
| HMYEINEIIRERRLKKGLTQAQVAKYLGVSAPAVNKWEKGTTYPDLVLLPALARLLDTDLTTLLSF | -1.46 |
| HMYEVVPNMRGLTYNQATAALAAAGLKVELSDSIYDEHTQPGTVLDQSPRPNTKVKPNRVVYLTVNAF | -1.1 |
| HMYFDDEELDTYKGRASNAYSPDETAQFEEVMTTMRPDEVAAWLRSLQLRGINLPDELKDEAIMLVE | -0.0968 |
| HMYFGNSLFQARKRSGLSQEGVAEKLGVSRQTVSKWETGETVPDIYQSKKMARLYGVSLDEL | 0.206 |
| HMYFNTADLKADSIHYGSTEQSVIKILGEPEYRETFVDNNVSYELFSYKGNLLLSFVENSLVSL | 0.147 |
| HMYGTERILAQLANYGIPNKLAFQIQDFYKEETLQIVEQQPYRLVEDIQGMGFKIADQLAEELGI | -0.307 |
| HMYIDLHEIWKSLTDEEQTVVKLLETEPAHVDTLIENSQIPASRILATLTLLEVRGIVKRLPGRMFSLAD | -3.61 |
| HMYIENIGDYLKSHDIKPSYQRIKVFEYLMQHKNHPTVDMIYKSLVDEIPTLSKTTVYNTLNLFIEKQI | -1.55 |
| HMYITGAVIRKLREKNNITQLQLAERLRVSDKTISKWETGKGYPDITLLEPIAKTFSVSVTELISGDI | -2.46 |
| HMYKNLRAFRESLGMTQKDFAASLSIGLSTYNGYEVGAREPKSDFWIAVARKYGVTIDYLMGFSDDPHK | -1.46 |
| HMYKSSRASKSEVNKFLKFIIQSLDKRGFLQPGHKRQSMIRNIENIFYRTNLSDQEIRILLGIFSTLNK | -0.9 |
| HMYLELVTKEGGSFDEPDYWGRRKLAYEIAGKTEGNYVVVKYTAEPATSDELDRVLNLNESVIRTKILRK | 0.00439 |
| HMYLHSEFSPVTGQELHMKYDDSSTEEDPVMLVEGKDIQGNDFVKKIHLNDVDPENATPAEMTALRVHL | 0.206 |
| HMYLLPVTSTELKGNYPNPFNPETTISFDLKDAERVNLSIYNLKGQLVRTLVNSDLPIGRHRLIWDGNDS | -0.622 |
| HMYLPGERMRIKITALGSNPKQGVGYLPDGMMVVVDEAATLVGRFVEIEFVKFLQTNSGRMMFAKVAT | -1.96 |

| Sequence | soluble fraction (log2) |
| --- | --- |
| HMYMKGKVKWFDSKKGYGFITSENGKEIFVHFSGIAAKGFKSLNEGQTVEFEVANGAKGEQAVNVTV | -1.23 |
| HMYMKTITEQFGERLKKIRTQKSLSQEQLSYLADIDRSYISDVERGARNISLENIYKLASALNIPPYLVLL | -0.341 |
| HMYMLYQQLADSLRDKIYEGTYTFGDKIPSERTLAATFGISHLTVRKALAILEEEGLLDRRQGNGTFVRV | -1.09 |
| HMYNIDSFMTKNYPTMERFTLSDVQKKYKTTFGLFVKQDELASMIEKTGRFNITSSKNVKYVNR | -1.88 |
| HMYNPAYDAEIKVILELARHGYWEEARERADELLKAAPDDTGVKRIQTWVRQQEQRMREQAIEDSIRA | -0.288 |
| HMYPEETVNKILDVSMQLFLEKGYEHTSIQDIVNHLGGLSKGAIYHHFKSKEDILDGVMNKLYQNN | -1.58 |
| HMYPGQILEIYLDEIKRLYLNGLSSADIFAEIKEGSIPSVKKAIRSMKDGSAPVKITEAEESTRIAPS | -0.543 |
| HMYPTPAAANRHFLDKWGHQEAYLGKVLNSRSRASEILNGKRPLSLSDLRTLRDNLGIPVDLLL | -0.648 |
| HMYQKERDKEISEIETFLKKITNANGTRAYSDESIADMSYVELLNLYEGITSKLTEEEIENI | 0.0659 |
| HMYQPLYEQIKRMLTQSLIDGEWKAGEMIPSEMELAARFKVSQGTVRKAIDELVSENILMRRQGKGTFVH | -0.962 |
| HMYSDDNKSILNLIDNLFNKENIKIDINAKKLLSNYLGVDRLVTKGEIEKAILFAGTKKHLSIEDISAFLS | -0.104 |
| HMYSFPHQLLKLRTEKQLSQAELATRLFVSRQAVSKWENGDAEPSIDKLILLAKVFNVSLDRLILGT | -4.31 |
| HMYSIDNPPDWLKNLPKGAIRIGVEVFNQVLSKADDEDRARMAAWSAIKAKYEKADDGQWQPKAA | 0.0816 |
| HMYSNDEIVNYLKNYIFDNFNLNELSDEELEEKIAELVQQQFAGQLLSLDEKVKLVNQVYSSIR | -0.0578 |
| HMYSRQRDLILKALRENVVHPTADFIYTVLKEKEPNLSLATVYRNLNLLANEGIIRKIEGLDGVAHFDH | -1.85 |
| HMYSVVGKKGIVIEDINYSTGTGQIKSEGEVWSAKTNEQINIPKGTEIEIESIDGVKVIVKPL | 0.109 |
| HMYTDGVPALTDLKKESKPGRRQYVGVEDIPKVLGGLGITILSTSKGLMSGHQAKKKNIGGELIASV | 0.102 |
| HMYTEIDDVKDLLSKIPSVNKLTTADRGMVQAARNAYDALDEDQKLYITIADVEKFNAAVEWMEEH | -0.186 |
| HMYTVRDGDTVFGILNRFGVSLDELLSLNPELSNGLKAGMVLKIK | -0.542 |
| HMYVADVVGMGIKDALYILENQGLRVVFTGKGVVKNQSIAVGEKIIKGEKIVLML | -1.88 |
| HMYVQDPVDRLVLESALRLLREQEREIIFLHLVAGLKHREIAGLLHLPLSTVLSGYRRALTKMKSYLEE | -0.0135 |
| HMYVTGETIRHLRTQRRMTQEQLAETLGVTGKAVSKWETGRGFPDMSLLEPLARALRISVPELLSGE | -1.07 |
| HMYYNQGILKSGASVYGEPGITSSHRLEIPSGSFVDIVQEKDEWVYYEKNHVNHGWVLRENIYIPSL | 0.149 |
| HMYYQEDHDIILEETEDVTDPYLITLRGYIFLNNLQWVAARQAFLSADERFRHRHYSALIAPIMQTIDNAA | 0.359 |
| HMYYSERILTILEERGISPYRVSKETGISQSVFSNWKRKPTSRITAANLERLADYLGLPVEVLTG | -3.48 |
